In patent US20230045873A1:

Target: oxMIF (recombinant human MIF immobilized into microwell plates, transforming MIF to oxMIF) (human) (UniProt P14174)
Assay: ELISA on immobilized MIF (oxMIF), protein L-HRP detection, mean of triplicate

Sequence of oxMIF (recombinant human MIF immobilized into microwell plates, transforming MIF to oxMIF) (human) (P14174 2-115 limits assumed): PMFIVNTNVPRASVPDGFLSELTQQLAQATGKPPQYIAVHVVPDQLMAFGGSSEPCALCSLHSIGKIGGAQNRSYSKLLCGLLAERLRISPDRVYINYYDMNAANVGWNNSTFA

- EC50: 0.6 nM
Substance: Imalumab (C0008), anti-oxMIF monospecific antibody
